The record followed here is patent publication US20040001822A1, “Y1-isolated molecules comprising epitopes containing sulfated moieties, antibodies to such epitopes, and uses thereof” (priority 2000, published 2004).

Test [1] can be described thus: Western blot with Y1 on aryl-sulfatase-treated heparin-BSA. The format is binding. The note with it: 18 hr at 22° C. The text has this:
(§1) Y1 ligand was further characterized using enzymatic treatments with proteases, glycanases, and […]; Western blotting with Y1, anti-CD42 antibodies, anti-CD162 antibodies and 181, immunoprecipitation using Y1 and anti-CD162 antibodies; FACS analysis using Y1 anti-CD162 antibodies; and sequencing.
(§2) The table below summarizes the biochemical experiments preformed to characterize and localize the Y1 binding site on KG-1 cells.
(§3) Western Blot Analysis with Y1 on SDS-PAGE Reducing Gels
The nitrocellulose membrane was blocked using 5% skim milk for one hour at room temperature. The membrane was then washed 3 times for 5 minutes each with 0.05% Tween 20 in PBS at room temperature. The membrane was incubated with 5 μg/ml Y1-biotin (or 181-biotin) in 2% skim milk in PBS for one hour at room temperature. The membrane was then washed 3 times for 5 minutes each with cold 0.05% Tween 20 in PBS in the cold room (about 4 to about 10° C.). The membrane was then incubated in the cold room with a 1:1000 dilution of SAV-HRP (streptavidin-HRP) (at a final concentration of […]) in 2% skim milk, 0.05% Tween. The dilution was carried out at room temperature (about 25° C.), then the diluted SAV-HRP was cooled on ice for 10-15 minutes before use. The incubation was carried out for 1 hour with gentle shaking. After the incubation with SAV-HRP, the membrane was washed, as above. […]

Test [2] concerns Leukemia Cells. In words: FACS of leukemia samples: anti-CD162 versus Y1. Type of test: binding, human. The note with it: 12 patient samples of Table 11. The protocol:
Analysis of binding of scFv Y1 antibodies and anti-CD162 antibodies to diseased cells also illustrates that scFv Y1 has binding characteristics different from those of anti-CD162 antibodies. […] (Table F). Y1 binds to the leukemic cells in 10 of 12 samples. In contrast, anti-CD162 bound only 5 out of 12 samples. […] Thus, it may be concluded that, in leukemic cells, scFv Y1 binds to a ligand other than that recognized by anti-CD162.
(§4) Samples provided from hospitals. Patients sample 30 μl/tube. Add 5 μl/tube of CD33-APC (for AML) or CD19-APC (for B-CLL) or CD38-APC (for Multiple Myeloma). Add 5 μl/tube of CD45-PerCp and 5 μl of scFv-Y1 or control scFv-N31 or CD162-PE (KPL1). Incubate tubes 30 minutes at 4° C. with low shaking. Wash by adding 2 ml PBS and spin 5 minutes at 1200 rpm. Discard supernatant.
(§5) For a one step assay continue with the lysis step:
(§6) Add 500 μl BD Lysine solution diluted 1:10 with ddH2O (300 μl to patient sample). Vortex at high speed and incubate 12 minutes at 4° C. Wash as above. Discard supernatant. And add 500 μl PBS. The samples are read in the FACS using blood sample acquisition setup according to international standards.
(§7) For two or more assays: working buffer is PBS+1% BSA+0.05% sodium azide. Incubations and wash as above.
(§8) Lysis of the red blood cells is the final step in the assay, followed by resuspension with 500 μl PBS.

The target of test [3] is T1, natural human platelet derived glycocalicin (Homo sapiens, UniProt P07359).
T1 construct: glycocalicin (soluble, extracellular fragment of GPIbα); from tissue; host or cells: human platelets
The test can be described thus: Western blot on natural human platelet derived glycocalicin. Type of test: binding. The following applies: semi-purified human platelet derived glycocalicin. The protocol:
(§9) The DNA fragment encoding for glycocalicin (GC, amino acid 1 to amino acid 493 of GPIbα ) was cloned into an IPTG inducible prokaryotic vector cassette. E. coli (BL21 DE3) cells harboring the newly constructed plasmid were grown at 37° C. to O.D. 0.7-0.8, than at 37° C. for 3 hours for in the presence of IPTG for induction.
(§10) SDS-polyacrylamide gel loaded either with semi-purified human platelet derived glycocalicin (“GC”) or with E. coli cell lysates (“total”) derived from induced and non-induced cells were analyzed. Western blot analysis was performed with biotinylated Y1-scfv, polyclonal rabbit anti-human glycocalicin antibody, commercially available mouse anti-human CD42 monoclonal antibody (SZ2 Immunotech, PM640 Serotec, HIP1 Pharmigen, AN51 DAKO), and polyclonal antibody against the N-terminus of GPIbα (Sc-7071, Santa Cruz).
(§11) The DNA fragment encoding the N-terminal soluble part of human platelet GP1b-glycocalicin (GC, amino acid 1 to amino acid 493) was cloned into an IPTG inducible prokaryotic vector cassette. E. coli (BL21 DE3) cells harboring the newly constructed plasmid were grown at 37° C. to O.D. 0.7-0.8, than at 37° C. for 3 hours for in the presence of IPTG for induction. SDS-polyacrylamide gel loaded either with semi-purified human platelet derived GC or with E. coli cell lysates (total protein content) derived from induced and non-induced cells were analyzed. […]

Test [4] concerns KG-1 cells. In words: Binding competition of Y1 forms on KG-1 cells. Further details: species or system human. The following applies: Y1 IgG-Biotin 50 ng; Y1 scFvs 5 μg and 10 μg. The text has this: To compare the binding of the scFv monomer (also referred to as CONY1) with the Y1 dimer, binding competition experiments were done in vitro on KG-1 cells. In addition, these experiments also compared the binding of the full Y1 IgG to the scFv Y1 monomers. To perform this study, a Y1 IgG was labeled with biotin.

Test [5] relates to primary leukemia cells. In words: FACS binding of Y1 to primary leukemia cells of patients. Also noted: species or system human. The protocol: as §4, §5, §6, §7, §8
The target in test [6] is T2, recombinant bacterial derived glycocalicin (Homo sapiens, UniProt P07359).
T2 construct: GC, amino acid 1 to amino acid 493 of GPIbα; made in house; host or cells: E. coli BL21 DE3 (total cell lysate loaded on the gel)
In words: Western blot on recombinant glycocalicin expressed in E. coli. The format is binding. The note with it: E. coli cell lysates. The protocol:
as §9, §10, §11

Test [7] deals with RP-HPLC KG-1 membrane fraction. In words: Western blot with Y1 on enzyme-treated KG-1 membrane fraction. Type of test: binding, human.
Source text: as §1, §2, §3
The nitrocellulose membrane was blocked using 5% skim milk for one hour at room temperature. The membrane was then washed 3 times for 5 minutes each with 0.05% Tween 20 in PBS at room temperature. The membrane was incubated with 5 μg/ml Y1-biotin (or 181-biotin) in 2% skim milk in PBS for one hour at room temperature. The membrane was then washed 3 times for 5 minutes each with cold 0.05% Tween 20 in PBS in the cold room (about 4 to about 10° C.). The membrane was then incubated in the cold room with a 1:1000 dilution of SAV-HRP (streptavidin-HRP) (at a final concentration of […]) in 2% skim milk, 0.05% Tween. The dilution was carried out at room temperature (about 25° C.), then the diluted SAV-HRP was cooled on ice for 10-15 minutes before use. The incubation was carried out for 1 hour with gentle shaking. After the incubation with SAV-HRP, the membrane was washed, as above. The membrane was then incubated with Super Signal mixture (Pierce) for 5 minutes as directed in the commercial protocol, then excess solution was dried. The membrane was use to expose it to X-ray film (Fuji), and the film was developed.

B1: Y1 scFv: fully human scFv clone binding platelets and myelogenous leukemia cells, SEQ ID NO: 25 (protein, listed as Homo sapiens)
scFv: MKYLLPTAAAGLLLLAAQPAMAEVQLVESGGGVVRPGGSLRLSCAASGFTFDDYGMSWVRQAPGKGLEWVSGINWNGGSTGYADSVKGRFTISRDNAKNSLYLQMNSLRAEDTAVYYCARMRAPVIWGQGTLVTVSRGGGGSGGGGSGGGGSSELTQDPAVSVALGQTVRITCQGDSLRSYYASWYQQKPGQAPVLVIYGKNNRPSGIPDRFSGSSSGNTASLTITGAQAEDEADYYCNSRDSSGNHVVFGGGTKLTVLGAAAEQKLISEEDLNGAA
For B1, the “Reactivity with Y1” value is recorded as “Binds to” in test [1]; “No” in test [7] (Mocarhagin, 7′ at 37° C.); “Reactivity” in test [7] (O-Sialo glycoprotein endopeptidase, 30′ at 37° C., SDS-PAGE reducing gel); “No” in test [7] (O-Sialo glycoprotein endopeptidase, 4 hr at 37° C.); “No” in test [7] (aryl-sulfatase, 18 hr at 22° C.). In test [2], the “leukemia samples whose leukemic cells are bound” value is 10 of 12. The “recognition in Western blot” value in test [3] is reported as “recognized”; in test [3] (listed as scFv Y1), “recognized only the natural human derived GC”; in test [6] it was “did not recognize”. Besides, the “competition with Y1 IgG-Biotin” value in test [4] is recorded as “partially competed”. Further, the entries for the “% Positive” value in test [5] (patients with AML), in test [5] (patients with B-Leukemia) and in test [5] (patients with Multiple Myeloma) were 80%, 67% and 100%, respectively. Further, the figures for the “Number Positive” value in test [5] (patients with AML), in test [5] (patients with B-Leukemia) and in test [5] (patients with Multiple Myeloma) were 60/75, 29/43 and 16/16, respectively.
